In US20190352642A1:

Target: complement C1q (in Hamster complement, Abcham Ab155111) (hamster)
Assay: cell-based or functional assay

| Substance | complement-induced hemolysis of IgG coupled RBC (OD 540 nm, against 100% hemolysis by Tween-20); 6 nm activated IgG (about 5x10^6 molecules per RBC) | complement-induced hemolysis of IgG coupled RBC; 1.2 nm activated IgG (about 1x10^6 molecules per RBC) | complement-induced hemolysis when about 1-2x10^4 IgG molecules were bound per one RBC (not shown) | complement-induced hemolysis of Fc coupled RBC (OD 540 nm, against 100% hemolysis by Tween-20); 6 nm activated Fc (about 5x10^6 molecules per RBC) | complement-induced hemolysis of Fc coupled RBC; 1.2 nm activated Fc (about 1x10^6 molecules per RBC) |
| --- | --- | --- | --- | --- | --- |
| h-IgG (Sigma Aldrich), chemically coupled to human red blood cells (antibody) | 90% | 30 to 40% | 85 to 95% |  |  |
| h-IgG Fc fragment (Sigma Aldrich), chemically coupled to human red blood cells |  |  |  | 80% | 30 to 40% |
